The labels stand for the following.
B1: C51E6-5-hIgG4 (antibody, V domains shown)
VH: QVQLVQSGSELKKPGASVKVSCKASGYSLYGTSMHWVRQAPGQGLEWMGYISPFTGRATYAQGFTGRFVFSLDTSVSTAYLQISSLKAEDTAVYYCARDYDYRYYYAMDYWGQGTTVTVSS
VL: EIVLTQSPDFQSVTPKEKVTITCTASESVPPQFLHWYQQKPDQSPKLLIYASRERASGVPSRFSGSGSGTDFTLTINSLEAEDAATYYCHQFHRSPLTFGGGTKLEIKR
B2: OMC.2.C6-hIgG4 (antibody, V domains shown)
VH: EVQLLESGGGLVQPGGSLRLSCTASGFTFSSYEMQWVRQAPGKGLEWVLGITSSSSHIFYADSVKGRFTVSRDNSKNTLYLQMNSLRAEDTAVYYCTKDLNSYYGLDVWGQGTTVTVSS
VL: QSVMTQPPSASGTPGQRVTISCSGSTSNLGNNYVSWYQHLPGTAPKLLIYGNDQRPSGVPDRFSGSKSGTSASLAISGLQSDDEADYYCSSWDASLNVWVFGGGTKLTVLG
B3: A2-hIgG4 (antibody, V domains shown)
VH: DVQLVESGGGLVQPGGSLRLSCAASGFTFDISAMSWVRQAPGKGLEWVSTISGSAYSTYYADSVKGRFTISRDNSKSTLYLQMNSLRAEDTAVYYCAREIFSDYWGLGTLVTVSS
VL: QSVLTQPPSASGTPGQRVTISCSGSTSNIGRESVYWYQQLPGTAPKLLIYSNVQRPSGAPNRFSGSKSGTSASLAISGLQSEDEADYYCGTWDDSLNGWVFGGGTKLTVLG
B4: OMC.1.B6-hIgG4 (antibody, V domains shown)
VH: EVQLLESGGGLVQPGGSLRLSCAASGFTFSSNYMSWVRQAPGKGLEWVSAISSSGGTIFYADSVKGRFTISRDNSKNTLYLQMNSLRAEDTAVYYCAKHKWNAVYYDGMDVWGQGTTVTVSS
VL: QSVLTQPPSASGTPGQRVTISCSGSNSNIGRNLVNWYQQLPGTAPKLLIYTIDQRPSGVPDRFSGSKSGTSASLVISGLQSEDEADYYCAAWDGSLNAWVFGGGTKLTVLG
B5: OMC.1.D6-hIgG4 (antibody, V domains shown)
VH: B4 VH with S31D, N32Y, T69I, A103D, G108A
VL: B4 VL with I52V, V75A, Q80A, G94S, A98S
B6: 2A3.H7-hIgG4 (antibody, V domains shown)
VH: EVQLLESGGGLVQPGGSLRLSCAASGFTFKDYCMTWVRQAPGKGLEWVSAIVYSGGSTYYADSVKGRFTISRDNSKNTLYLQMNNLRAEDTAVYYCAKYTRASYFYDAMDVWGQGTTVTVSS
VL: EIVLTQSPGTLSLSPGERATLSCRASQSIGRSFLAWYQQKPGQAPRLLIYDASTRAADIPARFSGSGSGTDFTLTISSLEPEDFAVYYCQQYYDWPPLSFGGGTKVEIKR
B7: 1H9-hIgG4 (antibody, V domains shown)
VH: B6 VH with A23V, A24G, T28N, F29L, N85S, A102G
VL: B6 VL with A61D, S77N, S78R, S99T
B8: 1D5-hIgG4 (antibody, V domains shown)
VH: B6 VH with A23V, A24G, T28N, N85S, A102G
VL: B6 VL with A57T, A61D, D71E, E80Q, P81S, S99T
B9: 2H7-hIgG4 (antibody)
heavy: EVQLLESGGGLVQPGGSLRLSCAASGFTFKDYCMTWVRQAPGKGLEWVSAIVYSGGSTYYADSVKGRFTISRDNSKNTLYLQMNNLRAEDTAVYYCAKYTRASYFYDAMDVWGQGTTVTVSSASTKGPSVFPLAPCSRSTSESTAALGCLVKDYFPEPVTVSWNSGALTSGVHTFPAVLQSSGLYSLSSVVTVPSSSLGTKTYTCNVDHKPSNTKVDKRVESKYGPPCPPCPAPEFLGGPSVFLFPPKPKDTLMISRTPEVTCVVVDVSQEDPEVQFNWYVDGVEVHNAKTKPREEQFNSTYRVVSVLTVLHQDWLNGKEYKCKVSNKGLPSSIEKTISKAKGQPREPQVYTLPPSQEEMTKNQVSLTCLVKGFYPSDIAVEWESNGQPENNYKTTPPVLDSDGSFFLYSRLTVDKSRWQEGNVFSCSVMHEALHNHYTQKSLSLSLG
light: EIVLTQSPGTLSLSPGERATLSCRASQSIGKSFLAWYQQKPGQAPRLLIYDASTRAADIPARFSGSGSGTDFTLTISSLEPEDFAVYYCQQYYDWPPLSFGGGTKVEIKRTVAAPSVFIFPPSDEQLKSGTASVVCLLNNFYPREAKVQWKVDNALQSGNSQESVTEQDSKDSTYSLSSTLTLSKADYEKHKVYACEVTHQGLSSPVTKSFNRGEC
notes: human IgG4 kappa

A word on the EC50 (read off the curve): it is the concentration at which the effect is half-maximal. Read a low EC50 (read off the curve) as a more potent agent. For orientation: EC50 means the concentration at which the effect is half-maximal. Low readings indicate higher potency in that assay, high ones lower potency in that assay.

Positions count from the first letter of the chain named.

The first assay deals with T1, human PD-1 (amino acids 1-185) stably expressed on Jurkat cells (human, UniProt Q15116 21-185).
T1 construct: extracellular domain and a portion of the transmembrane domain, on cells; also called hPD-1; Jurkat+hPD-1 cell line
T1 sequence (Q15116 21-185 limits assumed, form in doubt): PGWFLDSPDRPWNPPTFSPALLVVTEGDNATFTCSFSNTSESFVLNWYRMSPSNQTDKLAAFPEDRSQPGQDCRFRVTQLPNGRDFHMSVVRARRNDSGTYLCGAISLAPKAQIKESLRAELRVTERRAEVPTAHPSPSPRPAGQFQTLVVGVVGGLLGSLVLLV
Put plainly: flow cytometry, Jurkat+hPD-1 cells, APC anti-human IgG Fc, gMFI; no competitor. For orientation: In flow cytometry, cells or beads pass a laser one at a time.
Method: Briefly, Jurkat cells stably expressing hPD-1 (as described in Protocol A above) were washed and re-suspended in FACS buffer containing 1:50 dilution of human FcR Blocking reagent. Cells were incubated at 4° C. for 10 minutes and washed. […] Cells were washed and incubated with test antibodies or antibody-attenuated hIL-2 fusion proteins serially diluted six-fold for an 8-point curve in 100 μL volume for one hour at 4° C. To detect bound test anti-hPD-1 antibodies or anti-hPD-1-attenuated hIL-2 fusion proteins, cells were washed again and incubated with 1:40 dilution of Allophycocyanin-conjugated anti-human IgG Fc monoclonal antibody for 45 minutes on ice. Cells were washed and re-suspended in FACS buffer containing 1:1000 dilution of Sytox Green (Thermo Fisher). […] Flow cytometry was carried out on the BD Canto II, BD Celesta, or BD Fortessa (BD Biosciences) flow cytometers and gMFI was calculated using FlowJo software version 10. EC₅₀ values were calculated from the gMFI of the Allophycocyanin signal across the titrated concentrations using GraphPad Prism 7 software.
B1: the concentration for a half-maximal effect (EC50 (read off the curve)) is ~3 nM.

The target in another assay is T1, human PD-1 (amino acids 1-185) stably …. Put plainly: flow cytometry, Jurkat+hPD-1. How it is done: (§1) Antibodies or antibody-attenuated hIL-2 immunoconjugates (fusion proteins) were serially diluted six-fold in FACS buffer for an 8-point curve and added to human PD-1 expressing Jurkat cells for 1 hour on ice in 100 μL volume. Cells were washed and re-suspended in FACS buffer containing 1:40 dilution of Allophycocyanin conjugated anti-human IgG Fc monoclonal antibody. Cells were washed once more, re-suspended in FACS buffer containing 1:1000 dilution of Sytox Green (Thermo Fisher) and flow cytometric analysis was conducted on the BD FACS Canto II, BD Celesta or BD Fortessa (BD Biosciences) flow cytometers. The geometric mean fluorescent intensity (gMFI) was calculated using FlowJo software version 10. Half maximal effective concentration (EC₅₀) values were calculated from the gMFI of the Allophycocyanin signal across the titrated concentrations using GraphPad Prism 7 software.
(§2) The anti-PD-1 variable region sequences were expressed as human IgG4 kappa antibodies and were evaluated for the ability to bind to PD-1 expressing cells using flow cytometry as described in General Methods Protocol A. Antibodies to be tested were first screened for binding to human PD-1 using a Jurkat cell line expressing recombinant human PD-1 (Jurkat+hPD-1 cell line).
B2 had an EC50 of 3 to 16 nM.
B3 returned an EC50 of 3 to 16 nM.
With B4, the EC50 fell in the range of 3 to 16 nM.
Regarding B5, the 50% effective concentration (EC50) lay in the range of 3 to 16 nM.

The target of the next assay is human PD-1 on Jurkat Effector cells (Promega PD-1/PD-L1 blockade bioassay) (human, UniProt Q15116 25-288). Put plainly: cell-based or functional assay.
Sequence of human PD-1 on Jurkat Effector cells (Promega PD-1/PD-L1 blockade bioassay) (Q15116 25-288): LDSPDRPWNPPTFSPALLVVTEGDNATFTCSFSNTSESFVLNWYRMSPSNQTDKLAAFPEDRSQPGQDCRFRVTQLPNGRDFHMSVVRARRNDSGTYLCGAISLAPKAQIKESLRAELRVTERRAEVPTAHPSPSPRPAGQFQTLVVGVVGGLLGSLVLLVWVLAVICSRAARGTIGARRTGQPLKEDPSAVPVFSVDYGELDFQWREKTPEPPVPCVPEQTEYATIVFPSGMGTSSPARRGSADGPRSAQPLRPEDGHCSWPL
As for B2, the “luminescence, hPD-1/hPD-L1 blockade bioassay” value was ~3000 RLU.
Same read-out and setting: the figure for B6 is ~3000 RLU.
Still for that read-out and setting: to B7 belongs ~3000 RLU; to B8, ~3000 RLU; to B4, ~3000 RLU.
On the same count and under the same terms, the figure for B5 is ~3000 RLU.

A further assay deals with T1, human PD-1 (amino acids 1-185) stably …. Put plainly: flow cytometry, Jurkat+hPD-1, multiple experiments. How it is done: as §1, §2
For B6, the EC50 was in the range of 0.1 to 0.3 nM.
In turn, B9 displayed an EC50 of 0.1 to 0.3 nM.
In turn, B7 gave an EC50 of 0.1 to 0.3 nM.
In the case of B8, the EC50 lay in the range of 0.1 to 0.3 nM.

Values taken from patent publication US20250195677A1 (CEPHALON, published 2025).
